Holding throughout (settings): CHO
Substrate in series [1]: CC(C)[C@H](N)C(=O)OCCOCn1cnc2c(=O)nc(N)[nH]c21
Description: TP_TRANSPORTER: uptake (pH 6.2) in PEPT1-expressing CHO cells
Substrate in series [2]: CC(C)[C@H](N)C(=O)OCCOCn1cnc2c(=O)nc(N)[nH]c21
This is another data set of the same source.
Description: TP_TRANSPORTER: uptake (pH 6.8) in PEPT1-expressing CHO cells

Substrate in series [3]: CC(C)[C@H](N)C(=O)OCCOCn1cnc2c(=O)nc(N)[nH]c21
This is another data set of the same source.
Description: TP_TRANSPORTER: uptake (pH 7.5) in PEPT1-expressing CHO cells

Substrate in series [4]: CC(C)[C@H](N)C(=O)OCCOCn1cnc2c(=O)nc(N)[nH]c21
This is another data set of the same source.
Description: TP_TRANSPORTER: uptake (pH 7.9) in PEPT1-expressing CHO cells

Substrate in series [5]: CC(C)[C@H](N)C(=O)OCCOCn1cnc2c(=O)nc(N)[nH]c21
Description: TP_TRANSPORTER: uptake (pH 5.5) in PEPT1-expressing CHO cells
The source holds these as a separate data set.

This is an account of results in ChEMBL document CHEMBL2074015, “Effect of ionization on the variable uptake of valacyclovir via the human intestinal peptide transporter (hPepT1) in CHO cells” (Biopharm Drug Dispos, 2000).

B1: Solute carrier family 15 member 1 (Homo sapiens), P46059 (protein)
chain: MGMSKSHSFFGYPLSIFFIVVNEFCERFSYYGMRAILILYFTNFISWDDNLSTAIYHTFVALCYLTPILGALIADSWLGKFKTIVSLSIVYTIGQAVTSVSSINDLTDHNHDGTPDSLPVHVVLSLIGLALIALGTGGIKPCVSAFGGDQFEEGQEKQRNRFFSIFYLAINAGSLLSTIITPMLRVQQCGIHSKQACYPLAFGVPAALMAVALIVFVLGSGMYKKFKPQGNIMGKVAKCIGFAIKNRFRHRSKAFPKREHWLDWAKEKYDERLISQIKMVTRVMFLYIPLPMFWALFDQQGSRWTLQATTMSGKIGALEIQPDQMQTVNAILIVIMVPIFDAVLYPLIAKCGFNFTSLKKMAVGMVLASMAFVVAAIVQVEIDKTLPVFPKGNEVQIKVLNIGNNTMNISLPGEMVTLGPMSQTNAFMTFDVNKLTRINISSPGSPVTAVTDDFKQGQRHTLLVWAPNHYQVVKDGLNQKPEKGENGIRFVNTFNELITITMSGKVYANISSYNASTYQFFPSGIKGFTISSTEIPPQCQPNFNTFYLEFGSAYTYIVQRKNDSCPEVKVFEDISANTVNMALQIPQYFLLTCGEVVFSVTGLEFSYSQAPSNMKSVLQAGWLLTVAVGNIIVLIVAGAGQFSKQWAEYILFAALLLVVCVIFAIMARFYTYINPAEIEAQFDEDEKKNRLEKSNPYFMSGANSQKQM
A word on the Km: it is the concentration of substrate that gives half-maximal velocity. Take B1: the Michaelis-Menten constant (Km) in series [1] turned out to be 6.6 mM; in series [2] it was 5.4 mM; in series [3], 2.7 mM; in series [4], 2.2 mM; in series [5], 7.4 mM.
